Consider one molecule from publication PMC5727390, “Targeted inhibition of STAT/TET1 axis as a therapeutic strategy for acute myeloid leukemia”.

For this series, the target named is STAT3 (UniProt P40763 127-722). Put plainly: EMSA; no compound; Signosis EMSA Assay Kit, manufacturer's protocol with minor modifications; buffer, salt, pH and temperature not stated. The note with it: chain copies: 2; label: 5' biotin on both strands; blunt.
STAT3, sequence (P40763 127-722): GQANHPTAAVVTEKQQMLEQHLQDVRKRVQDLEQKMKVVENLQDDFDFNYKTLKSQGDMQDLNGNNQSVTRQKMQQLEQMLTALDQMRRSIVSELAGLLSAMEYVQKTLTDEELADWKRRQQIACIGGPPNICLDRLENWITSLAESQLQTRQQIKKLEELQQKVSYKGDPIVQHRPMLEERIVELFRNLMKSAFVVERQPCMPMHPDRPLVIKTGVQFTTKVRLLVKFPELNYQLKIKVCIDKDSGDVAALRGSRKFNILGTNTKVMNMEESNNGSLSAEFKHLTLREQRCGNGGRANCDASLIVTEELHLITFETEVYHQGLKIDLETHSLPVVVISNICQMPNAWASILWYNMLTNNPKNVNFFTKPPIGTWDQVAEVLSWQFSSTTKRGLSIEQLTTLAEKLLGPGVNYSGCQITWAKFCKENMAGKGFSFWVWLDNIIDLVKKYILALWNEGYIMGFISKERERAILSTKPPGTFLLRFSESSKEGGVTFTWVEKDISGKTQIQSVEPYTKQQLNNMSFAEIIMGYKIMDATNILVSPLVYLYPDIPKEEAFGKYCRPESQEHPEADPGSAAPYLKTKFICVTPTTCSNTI

B1: TET1-CPG probe (dsDNA)
DNA 1: CCGGTAGGCGTCCTCCGCGACCCGC
DNA 2: GCGGGTCGCGGAGGACGCCTACCGG
For the molecule B1, the binding result was “binds”.
